Earlier results in paper PMC10551901.

Experiments:
[1] = target: Rab32 (Homo sapiens) (UniProt Q13637)
[2] = target: Rab38 (Homo sapiens) (UniProt P57729)
[3] = target: Rab29 (Homo sapiens) (UniProt O14966)

Measured: Kd

UniProt P57729, sequence (P57729 whole entry): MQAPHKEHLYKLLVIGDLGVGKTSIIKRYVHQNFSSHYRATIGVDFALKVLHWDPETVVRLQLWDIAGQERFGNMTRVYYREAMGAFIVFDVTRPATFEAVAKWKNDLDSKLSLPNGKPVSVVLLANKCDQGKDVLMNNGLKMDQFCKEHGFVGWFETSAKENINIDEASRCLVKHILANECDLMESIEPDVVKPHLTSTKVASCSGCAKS
UniProt Q13637, sequence (Q13637 2-225): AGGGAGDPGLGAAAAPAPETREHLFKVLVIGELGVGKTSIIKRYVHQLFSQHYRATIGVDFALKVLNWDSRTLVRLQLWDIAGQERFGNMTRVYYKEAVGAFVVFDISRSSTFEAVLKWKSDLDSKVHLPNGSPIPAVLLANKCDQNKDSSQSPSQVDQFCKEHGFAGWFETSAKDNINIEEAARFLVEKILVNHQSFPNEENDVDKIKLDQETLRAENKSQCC
UniProt O14966, sequence (O14966 whole entry): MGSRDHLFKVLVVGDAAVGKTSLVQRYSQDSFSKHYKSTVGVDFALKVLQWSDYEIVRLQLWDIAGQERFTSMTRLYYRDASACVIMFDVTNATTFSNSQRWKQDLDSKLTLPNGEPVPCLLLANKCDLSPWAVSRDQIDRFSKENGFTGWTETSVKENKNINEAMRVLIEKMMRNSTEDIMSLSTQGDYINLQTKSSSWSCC

LRRK2 1-552 (from UniProt Q5S007)
2000 nM: all assays above
